Experimental data taken from US11230581B2, “Peptides and combination of peptides for use in immunotherapy against ovarian cancer and other cancers” (Immatics Biotechnologies GmbH, priority 2015, dated 2022).

molecular target: HLA-A*02:01 (Homo sapiens, UniProt P04439, D140Y/D185E/D98H/E176V/E277Q/G131W/G231S/I119V/I121R/I166T/I218V/L300P/L318F/N151K/N90K/P208A/P217A/Q86G/Q94H/R138H/R169H/T345S); assay: MHC binding assay (UV-ligand exchange, β2m ELISA, peptide exchange yield); conditions: binding of HLA-class I restricted peptides to HLA-A*02:01, UV-ligand exchange
Text: Candidate peptides for T cell based therapies according to the present invention were further tested for their MHC binding capacity (affinity). The individual peptide-MHC complexes were produced by UV-ligand exchange, where a UV-sensitive peptide is cleaved upon UV-irradiation, and exchanged with the peptide of interest as analyzed. Only peptide candidates that can effectively bind and stabilize the peptide-receptive MHC molecules prevent dissociation of the MHC complexes. To determine the yield of the exchange reaction, an ELISA was performed based on the detection of the light chain (β2m) of stabilized MHC complexes. The assay was performed as generally described in Rodenko et al. (Rodenko et al., 2006).
96 well MAXISorp plates (NUNC) were coated over night with 2 ug/ml streptavidin in PBS at room temperature, washed 4× and blocked for 1h at 37° C. in 2% BSA containing blocking buffer. […] Peptide-MHC monomers of the UV-exchange reaction were diluted 100 fold in blocking buffer. Samples were incubated for 1 h at 37° C., washed four times, incubated with 2 ug/ml HRP conjugated anti-β2m for 1h at 37° C., washed again and detected with TMB solution that is stopped with […]. Absorption was measured at 450 nm. Candidate peptides that show a high exchange yield (preferably higher than 50%, most preferred higher than 75%) are generally preferred for a generation and production of antibodies or fragments thereof, and/or T cell receptors or fragments thereof, as they show sufficient avidity to the MHC molecules and prevent dissociation of the MHC complexes.

Substance	Peptide exchange (MHC class I binding score, peptide exchange yield)
487 (LLINSVFHV; listed as Homo sapiens) [compound 487]	“+++” (≥50 = +++)
97 (SLINGSFLV; listed as Homo sapiens) [compound 97]	“+++” (≥50 = +++)
361 (ALYELEGTTV; listed as Homo sapiens) [compound 361]	“+++” (≥50 = +++)
296 (FMEGAIIYV; listed as Homo sapiens) [compound 296]	“+++” (≥50 = +++)
311 (RLYTGMHTV; listed as Homo sapiens) [compound 311]	“+++” (≥50 = +++)
52 (FLLAHGLGFLL; listed as Homo sapiens) [compound 52]	“++++” (≥75% = ++++)
464 (ALNDCIYSV; listed as Homo sapiens) [compound 464]	“+++” (≥50 = +++)
230 (ILVDWLVEV; listed as Homo sapiens) [compound 230]	“+” (≥10% = +)
14 (AAYGGLNEKSFV; listed as Homo sapiens) [compound 14]	“+++” (≥50 = +++)
407 (YLMDLINFL; listed as Homo sapiens) [compound 407]	“+++” (≥50 = +++)
462 (KLAKQPETV; listed as Homo sapiens) [compound 462]	“+++” (≥50 = +++)
335 (YSLSSVVTV; listed as Homo sapiens) [compound 335]	“+++” (≥50 = +++)
178 (ALTEIAFVV; listed as Homo sapiens) [compound 178]	“++++” (≥75% = ++++)
371 (FLQAHLHTA; listed as Homo sapiens) [compound 371]	“++++” (≥75% = ++++)
345 (VIWKALIHL; listed as Homo sapiens) [compound 345]	“+++” (≥50 = +++)
231 (FLSPQQPPLLL; listed as Homo sapiens) [compound 231]	“++” (≥20% = ++)
122 (FLLAEDDIYL; listed as Homo sapiens) [compound 122]	“+++” (≥50 = +++)

Substance	Peptide exchange (MHC class I binding score, peptide exchange yield)
86 (NLIGKIENV; listed as Homo sapiens) [compound 86]	“+++” (≥50 = +++)
261 (YVLEFLEEI; listed as Homo sapiens) [compound 261]	“++” (≥20% = ++)
342 (HIYDKVMTV; listed as Homo sapiens) [compound 342]	“+++” (≥50 = +++)
343 (SLLEVNEESTV; listed as Homo sapiens) [compound 343]	“+++” (≥50 = +++)
489 (KMWEELPEVV; listed as Homo sapiens) [compound 489]	“+++” (≥50 = +++)
281 (ILRESTEEL; listed as Homo sapiens) [compound 281]	“+++” (≥50 = +++)
262 (LLWGDLIWL; listed as Homo sapiens) [compound 262]	“+++” (≥50 = +++)
164 (ALLPQPKNLTV; listed as Homo sapiens) [compound 164]	“+++” (≥50 = +++)
140 (YMDAPKAAL; listed as Homo sapiens) [compound 140]	“++” (≥20% = ++)
341 (SQIALNEKLVNL; listed as Homo sapiens) [compound 341]	“+++” (≥50 = +++)
494 (ALQPEPIKV; listed as Homo sapiens) [compound 494]	“++” (≥20% = ++)
70 (GLLDYPVGV; listed as Homo sapiens) [compound 70]	“+++” (≥50 = +++)
100 (YLLSTNAQL; listed as Homo sapiens) [compound 100]	“++++” (≥75% = ++++)
284 (ILLSQTTGV; listed as Homo sapiens) [compound 284]	“+++” (≥50 = +++)
10 (FLATFPLAAV; listed as Homo sapiens) [compound 10]	“++++” (≥75% = ++++)
295 (VLDRESPNV; listed as Homo sapiens) [compound 295]	“+++” (≥50 = +++)

Other lines, results leading:

Peptide exchange (MHC class I binding score, peptide exchange yield)	Substance
“+++” (≥50 = +++)	592 (RLLSAAENFL; listed as Homo sapiens) [compound 592]
“+++” (≥50 = +++)	556 (FLTDLEDLTL; listed as Homo sapiens) [compound 556]
“+++” (≥50 = +++)	562 (YLEELPEKLKL; listed as Homo sapiens) [compound 562]
“++” (≥20% = ++)	538 (LLLAHIIAL; listed as Homo sapiens) [compound 538]
“+++” (≥50 = +++)	569 (KLVDRTWTL; listed as Homo sapiens) [compound 569]
“+++” (≥50 = +++)	588 (SLLPLSHLV; listed as Homo sapiens) [compound 588]
“+++” (≥50 = +++)	614 (LLLPDQPPYHL; listed as Homo sapiens) [compound 614]
“+++” (≥50 = +++)	564 (TVTNAVVTV; listed as Homo sapiens) [compound 564]
“+++” (≥50 = +++)	572 (ALADLIEKELSV; listed as Homo sapiens) [compound 572]
“+++” (≥50 = +++)	495 (FIFSEKPVFV; listed as Homo sapiens) [compound 495]
“+++” (≥50 = +++)	583 (ILANDGVLLAA; listed as Homo sapiens) [compound 583]
“++” (≥20% = ++)	499 (KIFDIDEAEEGV; listed as Homo sapiens) [compound 499]
“+++” (≥50 = +++)	598 (FLFPHSVLV; listed as Homo sapiens) [compound 598]
“+++” (≥50 = +++)	514 (ILVDWLVQV; listed as Homo sapiens) [compound 514]
“+++” (≥50 = +++)	560 (ALWDIETGQQTTT; listed as Homo sapiens) [compound 560]
“+++” (≥50 = +++)	596 (ALLDQTKTLAESAL; listed as Homo sapiens) [compound 596]
“++” (≥20% = ++)	603 (FLIEPEHVNTV; listed as Homo sapiens) [compound 603]
